B1: 6NMW (parent)
chain: QGDIVVALYPYDGIHPDDLSFKKGEKMKVLEEHGEWWKAKSLLTKKEGFIPSNYVAKLN

Variants of: B1
Experiment: folding stability dG (cDNA display proteolysis); higher = more stable
Conditions: PBS, room temperature

Folding stability dG [kcal/mol] of substitutions, site by site:
I14: Q 3.67
V5: H 1.41 | W 4.11 | Y 4.22 | R 0.357 | F 3.21 | K -0.356 | I 2.37 | A 2.41 | M 1.65 | E -0.712 | C 3.86 | G -0.073 | T 0.383 | S 0.271 | L 1.66 | Q -0.613
D3: H 4.61 | C 4.72 | P 3.09 | V 4.37 | I 4.5 | S 4.3 | L 4.43 | G 3.47 | Q 4.27 | E 3.77 | M 4.59 | Y 4.84 | R 4.02 | A 4.25 | T 4.52 | K 4.12 | N 3.87 | F 4.91
G13: D 0.145 | N 1.32 | R 2.26 | M 1.91 | L 0.825 | W 0.736 | H 0.829 | Y 0.268 | C 1.96 | P 2.3 | I 0.929 | S 3.39 | T 1.74 | Q 2.01 | V 1.14 | F 0.38 | K 2.6 | E 1.2
Y9: F 3.72 | G 1.46 | D 1.08 | M 3.43 | W 3.66 | T 1.87 | E 2.37 | H 2.81 | I 2.72 | R 4.07 | L 3.06 | Q 3.15 | A 2.74 | N 1.61 | C 4.44 | S 1.95 | K 3.61 | V 2.5
D12: K 4.34 | Q 4.13 | C 4.27 | G 2.7 | N 3.98 | L 3.69 | R 4.19 | T 4.32 | F 3.95 | I 4.38 | Y 3.86 | V 4.41 | P 3.14 | W 3.78 | H 4.08 | M 3.84 | S 3.78 | A 3.85
H15: I 1.63 | G 3.99 | D 2.54 | L 2.87 | C 4.24 | M 2.85 | K 3.48 | F 3.5 | A 3.22 | E 2.54
Q1: P 3.96 | C 4.65 | L 4.29 | H 3.79 | D 3.76 | K 4.1 | T 4.18 | S 3.89 | G 3.67 | M 3.74 | F 3.8 | W 4.06 | N 3.69 | R 3.79 | E 3.97 | Y 4.04 | A 3.87
V6: A 1.29 | G 0.392 | H 1.5 | F 2.89 | S 1.15 | M 2.59 | L 2.18 | K 1.52 | C 3.01 | W 2.05 | N 0.282 | Q 2.01 | E 2.18 | T 2.18 | Y 3.49 | I 4.06 | D -0.164 | R 1.9
P10: R 4.08 | F 2.47 | G 3.56 | N 4.84 | Q 3.77 | Y 2.66 | A 4.23 | L 2.23 | S 4.61 | I 1.94 | W 2.74 | V 2.27 | E 3.31 | M 2.75 | K 3.78 | C 3.89 | T 4.18 | H 3.93
Y11: H 1.71 | K 0.796 | I 0.264 | Q -0.356 | V 0.147 | M 0.669 | C 1.5 | N 0.567 | A -0.375 | F 3.93 | W 4.27 | S 0.369 | L 0.851 | R 2.25 | E -0.944

Source: the MegaScale stability set (Tsuboyama et al. 2023)
